Assay results as given in PMC5567992.

How the values were obtained:
[1] = biological target: CNTNW^N149L (Neisseria wadsworthii); assay: crystal structure
[2] = biological target: CNTNW^N149L, SeMet labelled (Neisseria wadsworthii); assay: crystal structure
[3] = biological target: CNTNW^N149S,E332A (Neisseria wadsworthii); assay: crystal structure
[4] = biological target: CNTNW^N149S,F366A (Neisseria wadsworthii); assay: crystal structure
[5] = biological target: MBP-CNTNW^T243C,C364S,A373C (inward-facing cross-linking mutant) (Neisseria wadsworthii); assay: cross-linking
[6] = biological target: MBP-CNTNW^T243C,C364S,K388C (outward-facing cross-linking mutant) (Neisseria wadsworthii); assay: cross-linking
[7] = biological target: concentrative nucleoside transporter from Neisseria wadsworthii (CNTNW), wild type (Neisseria wadsworthii); assay: crystal structure

## CNTNW^N149L (natural protein)
[1]
  stoichiometry N: 3

## CNTNW^N149L, SeMet labelled (natural protein)
[2]
  stoichiometry N: 3

## CNTNW^N149S,E332A (natural protein)
[3]
  stoichiometry N: 3

## CNTNW^N149S,F366A (natural protein)
[4]
  stoichiometry N: 3

## MBP-CNTNW^T243C,C364S,A373C (inward-facing cross-linking mutant) (natural protein)
[5]
  stoichiometry N: 3

## MBP-CNTNW^T243C,C364S,K388C (outward-facing cross-linking mutant) (natural protein)
[6]
  stoichiometry N: 3

## concentrative nucleoside transporter from Neisseria wadsworthii (CNTNW), wild type (natural protein)
[7]
  stoichiometry N: 3
